Biological target: fibronectin receptors (alpha5beta1) on the adherent CHO cell line (Chinese hamster (endogenous in CHO))
Assay: radioligand binding

human plasma fibronectin (ligand; labeled with 125Iodine (modified Chloramine-T procedure) in the binding assays)
Kd: 95 nM

From paper PMC2119780
